{
  "source": "patent US20190315886A1",
  "key": {"[1]": {"target": "human thrombin with His tag (human) (UniProt P00734)", "assay": "Biacore"}, "[2]": {"target": "human prothrombin with His tag (human) (UniProt P00734)", "assay": "Biacore"}, "[3]": {"target": "human thrombin with His tag (human) (UniProt P00734)", "assay": "Biacore; ratio of KD on pro-thrombin to KD on thrombin"}, "[4]": {"target": "human thrombin with His tag (human) (UniProt P00734)", "assay": "Biacore; reference h1601-008"}, "[5]": {"target": "human prothrombin with His tag (human) (UniProt P00734)", "assay": "Biacore; reference h1601-008"}},
  "note": "pKd: −log10 of the molar value.",
  "data": [
    {"substance": "Ichorcumab (antibody)", "values": [
      {"measurement": "pKd", "setting": "[1]", "value": 8.59},
      {"measurement": "pKd", "setting": "[2]", "value": 6.88},
      {"measurement": "Selective activity", "setting": "[3]", "value": 51},
      {"measurement": "Fold of Affinity relative to h1601-008", "setting": "[4]", "value": 3, "unit": "fold"},
      {"measurement": "Fold of Affinity relative to h1601-008", "setting": "[5]", "value": 0.6, "unit": "fold"}
    ]}
  ]
}
